Measured values from article PMC9482650, “Quantitative fragmentomics allow affinity mapping of interactomes” (Nature Communications, 2022).

Experiments:
Assay in all cases: holdup assay
Design in all cases: key: below the threshold = too weak to quantify, mostly under pKd 3.1 to 4
DLG5_1, Q8TDM6 = target: DLG5_1, Q8TDM6
RHPN1, Q8TCX5 = target: T1, RHPN1, Q8TCX5
T1 sequence (Q8TCX5 508-602, limits assumed, looked up): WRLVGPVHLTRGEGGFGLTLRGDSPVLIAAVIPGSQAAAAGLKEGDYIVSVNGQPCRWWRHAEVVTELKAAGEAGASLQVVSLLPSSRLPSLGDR

ARHGEF12, Q9NZN5-2 = target: ARHGEF12, Q9NZN5-2
IL16_3, Q14005 = target: IL16_3, Q14005
ARHGEF11, O15085 = target: T2, ARHGEF11, O15085
T2 sequence (O15085 42-136, limits assumed, looked up): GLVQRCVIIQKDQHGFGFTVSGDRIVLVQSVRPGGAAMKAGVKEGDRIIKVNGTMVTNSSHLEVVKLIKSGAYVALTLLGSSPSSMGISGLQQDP

Inadl_3, Q8NI35 = target: Inadl_3, Q8NI35
MAST1, Q9Y2H9 = target: MAST1, Q9Y2H9
IL16_1, Q14005 = target: IL16_1, Q14005
PDZRN3_1, Q9UPQ7 = target: T3, PDZRN3_1, Q9UPQ7
T3 sequence (Q9UPQ7 244-349, limits assumed, looked up): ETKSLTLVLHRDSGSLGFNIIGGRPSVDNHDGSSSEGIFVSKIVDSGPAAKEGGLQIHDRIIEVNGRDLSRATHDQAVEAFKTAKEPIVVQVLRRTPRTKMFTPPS

RAPGEF6, Q8TEU7 = target: T4, RAPGEF6, Q8TEU7
T4 sequence (Q8TEU7 525-625, limits assumed, looked up): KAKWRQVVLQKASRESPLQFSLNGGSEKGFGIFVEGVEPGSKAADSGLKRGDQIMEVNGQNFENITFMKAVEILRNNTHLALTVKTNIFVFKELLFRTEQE

TJP1_3, Q07157 = target: TJP1_3, Q07157
APBA1_1, Q02410 = target: T5, APBA1_1, Q02410
T5 sequence (Q02410 651-752, limits assumed, looked up): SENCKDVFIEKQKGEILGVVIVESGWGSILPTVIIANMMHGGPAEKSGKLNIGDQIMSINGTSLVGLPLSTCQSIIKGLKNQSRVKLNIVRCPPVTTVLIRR

RADIL, Q96JH8 = target: T6, RADIL, Q96JH8
T6 sequence (Q96JH8 971-1071, limits assumed, looked up): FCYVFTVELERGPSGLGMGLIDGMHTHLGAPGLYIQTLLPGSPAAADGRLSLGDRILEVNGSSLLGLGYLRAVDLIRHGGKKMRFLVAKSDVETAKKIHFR

PTPN3, P26045 = target: PTPN3, P26045
MAGI3_2, Q5TCQ9 = target: MAGI3_2, Q5TCQ9
LNX1_2, Q8TBB1 = target: LNX1_2, Q8TBB1
MPP7, Q5T2T1 = target: T7, MPP7, Q5T2T1
T7 sequence (Q5T2T1 134-230, limits assumed, looked up): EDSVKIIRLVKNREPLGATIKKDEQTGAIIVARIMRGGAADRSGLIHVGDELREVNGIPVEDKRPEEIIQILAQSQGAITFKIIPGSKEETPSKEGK

PDLIM1, O00151 = target: PDLIM1, O00151
Inadl_5, Q8NI35 = target: Inadl_5, Q8NI35
GRID2IP_2, A4D2P6 = target: GRID2IP_2, A4D2P6
HTRA1, Q92743 = target: HTRA1, Q92743
MAGI2_2, Q86UL8 = target: MAGI2_2, Q86UL8
GRIP1_2, Q9Y3R0 = target: T8, GRIP1_2, Q9Y3R0
T8 sequence (Q9Y3R0 145-248, limits assumed, looked up): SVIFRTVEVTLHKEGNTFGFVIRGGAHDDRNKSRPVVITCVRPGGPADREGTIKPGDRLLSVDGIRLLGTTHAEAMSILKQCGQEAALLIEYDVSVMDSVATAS

NHERF3_3, Q5T2W1 = target: T9, NHERF3_3, Q5T2W1
T9 sequence (Q5T2W1 238-333, limits assumed, looked up): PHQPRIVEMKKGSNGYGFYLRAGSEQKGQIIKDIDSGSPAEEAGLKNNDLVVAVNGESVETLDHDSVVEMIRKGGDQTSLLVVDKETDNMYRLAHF

SNTA1, Q13424 = target: T10, SNTA1, Q13424
T10 sequence (Q13424 82-180, limits assumed, looked up): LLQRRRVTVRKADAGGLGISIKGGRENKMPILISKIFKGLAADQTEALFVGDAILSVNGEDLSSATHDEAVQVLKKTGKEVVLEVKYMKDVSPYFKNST

FRMPD3, Q5JV73 = target: FRMPD3, Q5JV73
SNTG2, Q9NY99 = target: T11, SNTG2, Q9NY99
T11 sequence (Q9NY99 68-166, limits assumed, looked up): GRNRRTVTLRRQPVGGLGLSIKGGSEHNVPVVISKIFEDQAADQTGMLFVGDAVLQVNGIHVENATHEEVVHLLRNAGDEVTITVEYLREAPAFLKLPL

[1] = plain residues with an end cap or a label only (N-terminal biotin on a linker: ttds)
[2] = plain residues with an end cap or a label only (N-terminal biotin on a linker: ahx)

ARHGEF12, Q9NZN5-2, sequence (Q9NZN5 other isoform, or with tags, fused parts or gaps): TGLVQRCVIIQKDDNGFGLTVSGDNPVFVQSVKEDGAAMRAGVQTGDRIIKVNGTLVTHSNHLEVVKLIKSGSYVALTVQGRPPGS
DLG5_1, Q8TDM6, sequence (Q8TDM6 617-713): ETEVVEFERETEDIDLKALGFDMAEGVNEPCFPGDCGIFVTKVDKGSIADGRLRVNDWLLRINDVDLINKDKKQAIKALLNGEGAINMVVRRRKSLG
PDLIM1, O00151, sequence (O00151 1-87): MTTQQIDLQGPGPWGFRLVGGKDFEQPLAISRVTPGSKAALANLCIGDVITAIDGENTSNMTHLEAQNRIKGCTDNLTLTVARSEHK
FRMPD3, Q5JV73, sequence (Q5JV73 12-100): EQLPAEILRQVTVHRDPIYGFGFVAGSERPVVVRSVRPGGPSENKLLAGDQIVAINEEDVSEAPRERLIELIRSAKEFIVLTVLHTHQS
MAGI2_2, Q86UL8, sequence (Q86UL8 410-522): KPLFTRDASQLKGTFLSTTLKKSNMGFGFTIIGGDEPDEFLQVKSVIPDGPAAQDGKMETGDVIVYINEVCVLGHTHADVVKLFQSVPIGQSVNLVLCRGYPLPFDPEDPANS
IL16_3, Q14005, sequence (Q14005 1107-1207): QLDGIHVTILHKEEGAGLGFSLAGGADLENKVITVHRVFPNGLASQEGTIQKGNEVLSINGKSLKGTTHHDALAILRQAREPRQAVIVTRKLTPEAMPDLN
Inadl_3, Q8NI35, sequence (Q8NI35 359-469): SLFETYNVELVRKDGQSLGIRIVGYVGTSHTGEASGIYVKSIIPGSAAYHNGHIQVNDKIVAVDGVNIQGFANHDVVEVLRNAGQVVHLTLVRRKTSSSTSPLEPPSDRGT
TJP1_3, Q07157, sequence (Q07157 416-512): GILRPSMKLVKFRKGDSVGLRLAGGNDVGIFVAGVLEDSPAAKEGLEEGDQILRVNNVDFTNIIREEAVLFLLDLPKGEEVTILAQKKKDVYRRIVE
MAST1, Q9Y2H9, sequence (Q9Y2H9 962-1065): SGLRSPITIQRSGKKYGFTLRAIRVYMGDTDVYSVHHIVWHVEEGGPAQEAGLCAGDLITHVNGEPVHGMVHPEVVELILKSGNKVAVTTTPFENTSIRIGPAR
MAGI3_2, Q5TCQ9, sequence (Q5TCQ9 398-503): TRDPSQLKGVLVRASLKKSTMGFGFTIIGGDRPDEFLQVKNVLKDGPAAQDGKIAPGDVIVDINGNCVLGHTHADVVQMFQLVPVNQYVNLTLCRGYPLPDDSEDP
GRID2IP_2, A4D2P6, sequence (A4D2P6 272-370): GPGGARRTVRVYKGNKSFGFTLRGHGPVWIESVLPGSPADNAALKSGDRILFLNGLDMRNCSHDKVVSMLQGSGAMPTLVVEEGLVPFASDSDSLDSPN
Inadl_5, Q8NI35, sequence (Q8NI35 673-780): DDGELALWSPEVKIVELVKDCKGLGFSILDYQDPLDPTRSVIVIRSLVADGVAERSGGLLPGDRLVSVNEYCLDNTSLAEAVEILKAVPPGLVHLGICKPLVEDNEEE
LNX1_2, Q8TBB1, sequence (Q8TBB1 371-470): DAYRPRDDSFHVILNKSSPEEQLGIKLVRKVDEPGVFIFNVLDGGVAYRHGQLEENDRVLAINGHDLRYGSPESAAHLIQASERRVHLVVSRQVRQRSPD
PTPN3, P26045, sequence (P26045 505-587): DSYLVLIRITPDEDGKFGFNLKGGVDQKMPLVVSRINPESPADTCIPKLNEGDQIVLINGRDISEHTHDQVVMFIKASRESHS
IL16_1, Q14005, sequence (Q14005 210-306): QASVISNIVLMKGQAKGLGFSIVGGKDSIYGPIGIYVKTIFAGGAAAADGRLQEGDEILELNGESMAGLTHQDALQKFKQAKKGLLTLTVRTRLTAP
HTRA1, Q92743, sequence (Q92743 360-477): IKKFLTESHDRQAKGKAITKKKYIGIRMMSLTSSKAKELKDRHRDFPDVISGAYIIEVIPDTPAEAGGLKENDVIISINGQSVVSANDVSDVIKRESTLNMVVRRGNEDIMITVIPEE

B1: SLC4A7, Q9Y6M7 (peptide)
chain: KKYVDAETSL
**Q.** Which pKd (DLG5_1, Q8TDM6; [1]) does the source give for B1 here?
**A.** below the threshold

**Q.** What about the pKd (RHPN1, Q8TCX5; [1]) of the same binder?
**A.** 4.28

**Q.** And the pKd (ARHGEF12, Q9NZN5-2; [1])?
**A.** 4.29

**Q.** What about the pKd (IL16_3, Q14005; [1]) of the same binder?
**A.** below the threshold

**Q.** And the pKd (ARHGEF11, O15085; [1])?
**A.** 3.97

**Q.** What about the pKd (Inadl_3, Q8NI35; [1]) of the same binder?
**A.** below the threshold

**Q.** And the pKd (MAST1, Q9Y2H9; [1])?
**A.** 5.32

**Q.** What about the pKd (IL16_1, Q14005; [1]) of the same binder?
**A.** below the threshold

**Q.** And the pKd (PDZRN3_1, Q9UPQ7; [1])?
**A.** 4.57

**Q.** And the pKd (RAPGEF6, Q8TEU7; [1])?
**A.** below the threshold

**Q.** What about the pKd (TJP1_3, Q07157; [1]) of the same binder?
**A.** below the threshold

**Q.** What about the pKd (APBA1_1, Q02410; [1]) of the same binder?
**A.** below the threshold

**Q.** What about the pKd (RADIL, Q96JH8; [1]) of the same binder?
**A.** below the threshold

**Q.** And the pKd (PTPN3, P26045; [1])?
**A.** 5.04

**Q.** What about the pKd (MAGI3_2, Q5TCQ9; [1]) of the same binder?
**A.** below the threshold

**Q.** And the pKd (LNX1_2, Q8TBB1; [1])?
**A.** below the threshold

**Q.** And the pKd (MPP7, Q5T2T1; [1])?
**A.** below the threshold

**Q.** What about the pKd (PDLIM1, O00151; [1]) of the same binder?
**A.** below the threshold

**Q.** And the pKd (Inadl_5, Q8NI35; [1])?
**A.** below the threshold

**Q.** And the pKd (GRID2IP_2, A4D2P6; [1])?
**A.** 4.02

**Q.** And the pKd (HTRA1, Q92743; [1])?
**A.** 3.71

**Q.** And the pKd (MAGI2_2, Q86UL8; [1])?
**A.** 3.77

**Q.** And the pKd (GRIP1_2, Q9Y3R0; [1])?
**A.** below the threshold

**Q.** And the pKd (NHERF3_3, Q5T2W1; [1])?
**A.** below the threshold

**Q.** What about the pKd (SNTA1, Q13424; [1]) of the same binder?
**A.** 4.14

**Q.** And the pKd (FRMPD3, Q5JV73; [1])?
**A.** 3.58

**Q.** And the pKd (SNTG2, Q9NY99; [1])?
**A.** 4.33

B2: HPV30-E6, P36809 (peptide)
chain: RHTTSTETAV
**Q.** How did the pKd (DLG5_1, Q8TDM6; [1]) turn out when B2 was run?
**A.** below the threshold

**Q.** And the pKd (RHPN1, Q8TCX5; [1])?
**A.** 4.08

**Q.** And the pKd (ARHGEF12, Q9NZN5-2; [1])?
**A.** 4.2

**Q.** And the pKd (IL16_3, Q14005; [1])?
**A.** below the threshold

**Q.** What about the pKd (ARHGEF11, O15085; [1]) of the same binder?
**A.** 4.35

**Q.** What about the pKd (Inadl_3, Q8NI35; [1]) of the same binder?
**A.** 3.77

**Q.** What about the pKd (MAST1, Q9Y2H9; [1]) of the same binder?
**A.** 4.66

**Q.** What about the pKd (IL16_1, Q14005; [1]) of the same binder?
**A.** 4.08

**Q.** What about the pKd (PDZRN3_1, Q9UPQ7; [1]) of the same binder?
**A.** 4.68

**Q.** And the pKd (RAPGEF6, Q8TEU7; [1])?
**A.** below the threshold

**Q.** And the pKd (TJP1_3, Q07157; [1])?
**A.** below the threshold

**Q.** And the pKd (APBA1_1, Q02410; [1])?
**A.** below the threshold

**Q.** What about the pKd (RADIL, Q96JH8; [1]) of the same binder?
**A.** below the threshold

**Q.** What about the pKd (PTPN3, P26045; [1]) of the same binder?
**A.** 5.13

**Q.** What about the pKd (MAGI3_2, Q5TCQ9; [1]) of the same binder?
**A.** 5.36

**Q.** And the pKd (LNX1_2, Q8TBB1; [1])?
**A.** 3.67

**Q.** And the pKd (MPP7, Q5T2T1; [1])?
**A.** below the threshold

**Q.** And the pKd (PDLIM1, O00151; [1])?
**A.** below the threshold

**Q.** What about the pKd (Inadl_5, Q8NI35; [1]) of the same binder?
**A.** below the threshold

**Q.** And the pKd (GRID2IP_2, A4D2P6; [1])?
**A.** below the threshold

**Q.** What about the pKd (HTRA1, Q92743; [1]) of the same binder?
**A.** 3.73

**Q.** And the pKd (MAGI2_2, Q86UL8; [1])?
**A.** 5.04

**Q.** And the pKd (GRIP1_2, Q9Y3R0; [1])?
**A.** 3.78

**Q.** What about the pKd (NHERF3_3, Q5T2W1; [1]) of the same binder?
**A.** below the threshold

**Q.** What about the pKd (SNTA1, Q13424; [1]) of the same binder?
**A.** 4.72

**Q.** And the pKd (FRMPD3, Q5JV73; [1])?
**A.** 3.76

**Q.** And the pKd (SNTG2, Q9NY99; [1])?
**A.** 4.67

B3: TJP3, O95049 (peptide)
chain: GYDWGPATDL
**Q.** B3 was tested. Which pKd (DLG5_1, Q8TDM6; [2]) did it give?
**A.** below the threshold

**Q.** What about the pKd (RHPN1, Q8TCX5; [2]) of the same binder?
**A.** 5.36

**Q.** And the pKd (ARHGEF12, Q9NZN5-2; [2])?
**A.** 4.66

**Q.** What about the pKd (IL16_3, Q14005; [2]) of the same binder?
**A.** below the threshold

**Q.** What about the pKd (ARHGEF11, O15085; [2]) of the same binder?
**A.** 4.6

**Q.** And the pKd (Inadl_3, Q8NI35; [2])?
**A.** 3.72

**Q.** What about the pKd (MAST1, Q9Y2H9; [2]) of the same binder?
**A.** 4.78

**Q.** What about the pKd (IL16_1, Q14005; [2]) of the same binder?
**A.** below the threshold

**Q.** What about the pKd (PDZRN3_1, Q9UPQ7; [2]) of the same binder?
**A.** 3.69

**Q.** What about the pKd (RAPGEF6, Q8TEU7; [2]) of the same binder?
**A.** below the threshold

**Q.** What about the pKd (TJP1_3, Q07157; [2]) of the same binder?
**A.** below the threshold

**Q.** And the pKd (APBA1_1, Q02410; [2])?
**A.** below the threshold

**Q.** What about the pKd (RADIL, Q96JH8; [2]) of the same binder?
**A.** below the threshold

**Q.** What about the pKd (PTPN3, P26045; [2]) of the same binder?
**A.** 4.27

**Q.** What about the pKd (MAGI3_2, Q5TCQ9; [2]) of the same binder?
**A.** below the threshold

**Q.** What about the pKd (LNX1_2, Q8TBB1; [2]) of the same binder?
**A.** below the threshold

**Q.** And the pKd (MPP7, Q5T2T1; [2])?
**A.** below the threshold

**Q.** And the pKd (PDLIM1, O00151; [2])?
**A.** 4.41

**Q.** What about the pKd (Inadl_5, Q8NI35; [2]) of the same binder?
**A.** below the threshold

**Q.** What about the pKd (GRID2IP_2, A4D2P6; [2]) of the same binder?
**A.** 4.47

**Q.** What about the pKd (HTRA1, Q92743; [2]) of the same binder?
**A.** 4.12

**Q.** What about the pKd (MAGI2_2, Q86UL8; [2]) of the same binder?
**A.** below the threshold

**Q.** And the pKd (GRIP1_2, Q9Y3R0; [2])?
**A.** below the threshold

**Q.** And the pKd (NHERF3_3, Q5T2W1; [2])?
**A.** below the threshold

**Q.** And the pKd (SNTA1, Q13424; [2])?
**A.** 4.07

**Q.** What about the pKd (FRMPD3, Q5JV73; [2]) of the same binder?
**A.** below the threshold

**Q.** And the pKd (SNTG2, Q9NY99; [2])?
**A.** 4.32
